Results from article PMC6829862.

Molecular target: mCherry–Gβ1γ9 dimer (UniProt P62873)
Experiment: FRET or BRET; FLIM-FRET in living transiently transfected HEK 293 cells at 37 °C; donor Citrine in Gα, acceptor mCherry on Gβ1 with the appropriate Gγ; efficiency E = 1 − τda/τd from the short lifetime component τ1 (donor alone 2.7 ± 0.1 ns), analysed only at the plasma membrane; GppNHp added to the culture did not change the signal

Sequence of Citrine–Gαi3 (P08754 whole entry): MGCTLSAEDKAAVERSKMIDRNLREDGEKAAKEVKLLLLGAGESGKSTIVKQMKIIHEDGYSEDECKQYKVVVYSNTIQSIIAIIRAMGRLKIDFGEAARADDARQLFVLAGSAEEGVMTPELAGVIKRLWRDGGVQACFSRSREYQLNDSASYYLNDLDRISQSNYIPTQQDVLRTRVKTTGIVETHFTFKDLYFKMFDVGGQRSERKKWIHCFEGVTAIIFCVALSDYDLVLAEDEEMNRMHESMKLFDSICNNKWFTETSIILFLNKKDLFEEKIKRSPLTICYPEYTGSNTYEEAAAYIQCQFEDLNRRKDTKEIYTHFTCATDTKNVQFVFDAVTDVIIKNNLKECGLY

Substance: Citrine–Gαi3 (from UniProt P08754 1-354) (natural protein)
- FRET efficiency, lower than that of m3 with m4 by: 5%
